Measurements: paper PMC9936548, “Repertoire of Computationally Designed Peroxygenases for Enantiodivergent C–H Oxyfunctionalization Reactions” (Journal of the American Chemical Society, 2023)

Substrate: CCc1ccccc1
Test: purified protein
Format: biochemical, Cyclocybe aegerita
[1] = 2 mM H2O2, 100 mM phosphate pH 7.0, design d2
[2] = 2 mM H2O2, 100 mM phosphate pH 7.0, design d4

B1: PaDa-I (evolved AaeUPO) (Cyclocybe aegerita; A359P/F242L/F354L/G284I/I291V/L110F/T235L/V100A/V118I/V287I) (protein)
chain: EPGLPPGPLENSSAKLVNDEAHPWKPLRPGDIRGPCPGLNTLASHGYLPRNGVATPAQIINAVQEGFNFDNQAAIFATYAAHLVDGNLITDLLSIGRKTRLTGPDPPPPASVGGLNEHGTFEGDASMTRGDAFFGNNHDFNETLFEQLVDYSNRFGGGKYNLTVAGELRFKRIQDSIATNPNFSFVDFRFFLAYGETTLPANLFVDGRRDDGQLDMDAARSFFQFSRMPDDFFRAPSPRSITGIEVVVQAHPMQPGRNVGKINSYTVDPTSSDFSTPCLMYEKFVNITVKSLYPNPTVQLRKALNTNLDFLFQGVPAGCTQVFPYGRD
notes: laboratory-evolved secretion mutant PaDa-I; mature, no tag; evolved signal peptide (F12Y/A14V/R15G/A21D in leader); heme and structural Mg; expressed in Pichia pastoris, purified to homogeneity
Protein B1 has a Km [1] of 560 ± 200 µM, a kcat [1] of 570 ± 119 s⁻¹ and a kcat/Km [1] of 1.02e+06 M⁻¹ s⁻¹.

B2: PaDa-I (evolved AaeUPO) (Cyclocybe aegerita; A120I/F112L/F242L/F354L/G284N/I291V/L110F/V100A/V118I/V287T) (protein)
chain: EPGLPPGPLENSSAKLVNDEAHPWKPLRPGDIRGPCPGLNTLASHGYLPRNGVATPAQIINAVQEGFNLDNQAAIFITYAAHLVDGNLITDLLSIGRKTRLTGPDPPPPASVGGLNEHGTFEGDASMTRGDAFFGNNHDFNETLFEQLVDYSNRFGGGKYNLTVAGELRFKRIQDSIATNPNFSFVDFRFFTAYGETTLPANLFVDGRRDDGQLDMDAARSFFQFSRMPDDFFRAPSPRSNTGTEVVVQAHPMQPGRNVGKINSYTVDPTSSDFSTPCLMYEKFVNITVKSLYPNPTVQLRKALNTNLDFLFQGVAAGCTQVFPYGRD
notes: as for B1
With B2 the Km [2] was 560 ± 200 µM, the kcat [2] was 570 ± 119 s⁻¹ and the kcat/Km [2] was 1.02e+06 M⁻¹ s⁻¹.
